Results on 94 variants are retold here after the supplement of paper PMC10567573.

B1: STK38L (parent)
chain: NWKETLVFPPEVPISEKAKDLILR
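Further: lentivirally expressed fusions sorted by FACS into six bins by GFP to DsRed ratio, PSI derived from sequencing read proportions per bin multiplied by bin number.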

Variants of B1 are the subject of the data set. Put plainly: protein stability index of a GFP-peptide fusion (GPS, HEK-293T) (PSI 1-6); higher = more stable. To be noted: c terminus: a fixed tail appended.
For the variant NWKETLVFPPEVPISEKRKDLILR [A18R], the protein stability index turned out to be 3.69.
In the case of NWKETLVFPPEVPISEKFKDLILR [A18F], the protein stability index came to 3.06.
As to NWKETLVFPPEVPISEKAKDLILE [R24E], the protein stability index was 3.57.
To NWKETLVFPPEVPISEKAKDLILC [R24C] belongs 2.16.
For NWKETLVFPPEVPISEKAKDLILD [R24D], the protein stability index came out at 4.32.
The figure for NWKETLVFPPEVPISEKAKDLILA [R24A] is 3.09.
To NWKETLVFPPEVPISEKAKALILR [D20A] belongs 2.92; to NWKETLVFPPEVPISEKAKQLILR [D20Q], 3.
As to NWKETLVFPPEVPISEKAKFLILR [D20F], the protein stability index came to 2.52.
The figure for NWKETLVFPPEVPISEKAKYLILR [D20Y] is 1.8; for NWKETLVFPPEVPISEKAKRLILR [D20R] it is 2.94.
Take NWKETLVFPPEVPISEKAKNLILR [D20N]: the protein stability index came out at 2.63.
To NWKETLVFPPEVPISEKAKHLILR [D20H] belongs 1.9; to NWKETLVFPPEVPISEKAKMLILR [D20M], 1.94; to NWKETLVFPPEVPISEKAKSLILR [D20S], 2.45.
The figure for NWKETLVFPPEVPISEKAKCLILR [D20C] is 2.06; for NWKETLVFPPEVPISEKAKKLILR [D20K] it is 2.57.
NWKETLVFPPEVPISEKAKGLILR [D20G]: the protein stability index is 2.31.
The figure for NWKETLVFPPEVPISEKAKWLILR [D20W] is 1.92; for NWKETLVFPPEVPISEKAKTLILR [D20T] it is 2.92.
Turning to NWKETLVFPPEVPISEKAKVLILR [D20V], the protein stability index is 2.23.
To NWKETLVFPPEVPISEKAKPLILR [D20P] belongs 2.65.
To NWKETLVFPPEVPISEKAKILILR [D20I] belongs 1.52; to NWKETLVFPPEVPISEKAKDLLLR [I22L], 3.21; to NWKETLVFPPEVPISEKAKDLALR [I22A], 4.17.
To NWKETLVFPPEVPISEKAKDLVLR [I22V] belongs 3.06; to NWKETLVFPPEVPISEKAKDLNLR [I22N], 3.62.
With NWKETLVFPPEVPISEKAKDLGLR [I22G], the protein stability index turned out to be 3.23.
Consider NWKETLVFPPEVPISEKAKDLPLR [I22P], for which the protein stability index was found to be 4.36.
Regarding NWKETLVFPPEVPISEKAKDLYLR [I22Y], the protein stability index was determined as 3.51.
The figure for NWKETLVFPPEVPISEKAKDLMLR [I22M] is 4.15; for NWKETLVFPPEVPISEKAKDLRLR [I22R] it is 4.04.
To NWKETLVFPPEVPISEKAKDLCLR [I22C] belongs 3.07.
As to NWKETLVFPPEVPISEKAKDLTLR [I22T], the protein stability index stood at 4.22.
The figure for NWKETLVFPPEVPISEKAKDLDLR [I22D] is 4.43; for NWKETLVFPPEVPISEKAKDLSLR [I22S] it is 3.89.
Take NWKETLVFPPEVPISEKAKDLWLR [I22W]: the protein stability index came to 3.42.
To NWKETLVFPPEVPISEKAKDLKLR [I22K] belongs 3.66; to NWKETLVFPPEVPISEKAKDLFLR [I22F], 2.79; to NWKETLVFPPEVPISEKAKDLHLR [I22H], 3.68.
To NWKETLVFPPEVPISEKAKDLELR [I22E] belongs 4.54; to NWKETLVFPPEVPISEKAKDLQLR [I22Q], 3.88.
The figure for NWKETLVFPPEVPISEKAFDLILR [K19F] is 1.95; for NWKETLVFPPEVPISEKAWDLILR [K19W] it is 2.26.
With NWKETLVFPPEVPISEKAIDLILR [K19I], the protein stability index was determined as 2.01.
As to NWKETLVFPPEVPISEKACDLILR [K19C], the protein stability index was determined as 2.87.
Regarding NWKETLVFPPEVPISEKAADLILR [K19A], the protein stability index was found to be 2.69.
The figure for NWKETLVFPPEVPISEKAHDLILR [K19H] is 2.78.
For NWKETLVFPPEVPISEKAQDLILR [K19Q], the protein stability index was 2.86.
As for NWKETLVFPPEVPISEKAYDLILR [K19Y], the protein stability index worked out at 2.29.
To NWKETLVFPPEVPISEKARDLILR [K19R] belongs 2.96; to NWKETLVFPPEVPISEKAGDLILR [K19G], 2.96.
NWKETLVFPPEVPISEKADDLILR [K19D]: the protein stability index came out at 3.38.
To NWKETLVFPPEVPISEKATDLILR [K19T] belongs 3.41.
The figure for NWKETLVFPPEVPISEKAPDLILR [K19P] is 3.17.
With NWKETLVFPPEVPISEKAMDLILR [K19M], the protein stability index turned out to be 2.19.
As for NWKETLVFPPEVPISEKALDLILR [K19L], the protein stability index came out at 1.49.
For the variant NWKETLVFPPEVPISEKAEDLILR [K19E], the protein stability index stood at 3.77.
The figure for NWKETLVFPPEVPISEKANDLILR [K19N] is 3.07; for NWKETLVFPPEVPISEKASDLILR [K19S] it is 3.53; for NWKETLVFPPEVPLSEKAKDLILR [I14L] it is 2.88.
The figure for NWKETLVFPPEVPFSEKAKDLILR [I14F] is 2.32.
As for NWKETLVFPPEVPKSEKAKDLILR [I14K], the protein stability index was 4.07.
The figure for NWKETLVFPPEVPHSEKAKDLILR [I14H] is 2.84; for NWKETLVFPPEVPYSEKAKDLILR [I14Y] it is 2.1; for NWKETLVFPPEVPESEKAKDLILR [I14E] it is 3.53.
Consider NWKETLVFPPEVPMSEKAKDLILR [I14M], for which the protein stability index amounted to 3.77.
To NWKETLVFPPEVPCSEKAKDLILR [I14C] belongs 3.19.
The figure for NWKETLVFPPEVPRSEKAKDLILR [I14R] is 3.44.
As for NWKETLVFPPEVPNSEKAKDLILR [I14N], the protein stability index was 3.38.
Turning to NWKETLVFPPEVPDSEKAKDLILR [I14D], the protein stability index was found to be 4.44.
To NWKETLVFPPEVPQSEKAKDLILR [I14Q] belongs 3.23; to NWKETLVFPPEVPASEKAKDLILR [I14A], 3.44.
To NWKETLVFPPEVPWSEKAKDLILR [I14W] belongs 2.05; to NWKETLVFPPEVPTSEKAKDLILR [I14T], 4.42.
Turning to NWKETLVFPPEVPISECAKDLILR [K17C], the protein stability index stood at 2.81.
Regarding NWKETLVFPPEVPISEMAKDLILR [K17M], the protein stability index amounted to 2.85.
The figure for NWKETLVFPPEVPISELAKDLILR [K17L] is 2.15.
As for NWKETLVFPPEVPISEHAKDLILR [K17H], the protein stability index was found to be 2.98.
Take NWKETLVFPPEVPISERAKDLILR [K17R]: the protein stability index stood at 2.8.
For the variant NWKETLVFPPEVPISEEAKDLILR [K17E], the protein stability index worked out at 3.32.
In the case of NWKETLVFPPEVPISENAKDLILR [K17N], the protein stability index worked out at 3.37.
To NWKETLVFPPEVPISETAKDLILR [K17T] belongs 3.7; to NWKETLVFPPEVPISEIAKDLILR [K17I], 1.92; to NWKETLVFPPEVPISEDAKDLILR [K17D], 3.89.
To NWKETLVFPPEVPISEAAKDLILR [K17A] belongs 3.17; to NWKETLVFPPEVPISEPAKDLILR [K17P], 3.41.
To NWKETLVFPPEVPISEYAKDLILR [K17Y] belongs 3.14; to NWKETLVFPPEVPISESAKDLILR [K17S], 4.07.
NWKETLVFPPEVPISEWAKDLILR [K17W]: the protein stability index turned out to be 2.41.
For the variant NWKETLVFPPEVPISEVAKDLILR [K17V], the protein stability index stood at 2.21.
With NWKETLVFPPEVPISEGAKDLILR [K17G], the protein stability index stood at 2.8.
With NWKETLVFPPEVPISEQAKDLILR [K17Q], the protein stability index is 3.05.
To NWKETLVFPPEVPISEFAKDLILR [K17F] belongs 2.93.
